Each block holds one molecule with its values, some of them ahead of it.
Legend:
dimethylated casein [1] = molecular target: dimethylated casein
dimethylated casein [2] = molecular target: dimethylated casein; remark: listed apart in the source
dimethylated casein [3] = molecular target: dimethylated casein; remark: listed apart in the source
[4] = test system: dimethylated casein and monodansylcadaverine; test: Effect of NaCl and Ca2+ on enzyme activity; type: biochemical; settings: for effect of NaCl concentration on enzyme activity (in words): increasing NaCl concentration
casein = test: Control of gelation of casein solution by NaCl and CaCl2; type: biochemical; parameters: key to degree of gelation: -: the solution was still in the solution state; ±: the solution was a high viscosity product; +: the solution was a gelated product
Method: To an aqueous solution of casein (available from Sigma Company) having a protein concentration of 1% by weight, there was added NaCl in such an amount that the concentration thereof was 0, 0.1 or 0.3M, while variously changing the calcium chloride concentration within the range of from 0 to 200 mM to thus investigate the gelation of the protein. In this connection, the purified transglutaminase was added in an amount corresponding to 4.0 units per 1 mg of the protein. After carrying out the reaction at 37° C. for 90 minutes, the degree of gelation was evaluated.

[5] = test system: dimethylated casein and monodansylcadaverine; test: Transglutaminase activity of purification fractions (monodansylcadaverine incorporation into dimethylated casein, fluorescence); type: biochemical
Method: The activity of the transglutaminase is determined by reacting the enzyme with dimethylated casein and monodansylcadaverine as substrates and measuring an increase in the fluorescent intensity of casein due to the incorporation of monodansylcadaverine into the dimethylated casein. The composition of the reaction solution is as follows:
To 2.4 ml of the foregoing reaction solution, there is added 20 to 50 μl of the transglutaminase solution followed by carrying out the reaction at 37° C. for 30 min, terminating the reaction by addition of 100 μl of a 500 mM EDTA solution and then determining the fluorescent intensity of the reaction solution (using a device: RF-1500 available from Shimadzu Corporation; excitation wavelength: 350 nm; wavelength of emitted fluorescent rays: 480 nm). In respect of the unit of the activity, that required for increasing the fluorescent intensity by 1.0 within one minute is herein defined to be one unit.
Thus, the purified transglutaminase originating from Crassostrea gigas was obtained.

[6] = test system: methylated casein and monodansylcadaverine; test: Transglutaminase activity of yeast crushed cell extract while changing the NaCl concentration; type: biochemical; settings: control: 1.2 μg protein
Source text: The crushed cell extract of the foregoing Saccharomyces cerevisiae INVSC2/pCGTG4S AJ14697 (FERM BP-4964) was inspected for the transglutaminase activity while changing the NaCl concentration in the reaction solution by way of comparison (Table 7).

[7] = test system: methylated casein and monodansylcadaverine; test: Transglutaminase activity of crushed cell supernatant of transformed Escherichia coli (pCGTG4E); type: biochemical; settings: cultivation temp. 26° C.; control: 1.2 μg protein
Source text: Then the transglutaminase activity of the crude extract was investigated by an activity-detection method which made use of an increase in the intensity of fluorescent light (the fluorescent intensity observed at 480 nm while exciting with the light rays of 350 nm) due to the linkage of monodansylcadaverine to methylated casein as an indication. This activity-detection method is the method disclosed in Nippon Suisan Gakkaishi, 1991, 57, pp. 1203-1210 which is slightly modified. More specifically, 20 μl of each crude extract was added to 2 ml of a solution comprising 50 mM Tris-HCl buffer (pH 8.5), 1 mg/ml methylated casein, 15 μM monodansylcadaverine and 10 mM calcium chloride, followed by stirring and keeping warm at 37° C. for 20 minutes. After the reaction, 100 μl of 500 mM EDTA solution was added to the reaction system and each reaction solution was inspected for the intensity of emitted fluorescent light using a fluorophotometer (Shimadzu RF-1500, available from Shimadzu Corporation).
The colony of the transformant (FERM BP-4962) thus obtained was inoculated on 50 ml of LB culture medium (comprising 10 g/l of trypton, 5 g/l of yeast extract and 10 g/l of NaCl (pH 7.0)) supplemented with 50 mg/l of ampicillin and 10 mM of IPTG contained in a Sakaguchi flask, followed by cultivation at 26° C. for 21 hours and collection of the bacterial cells from the culture medium. […]

[8] = test system: methylated casein and monodansylcadaverine; test: Transglutaminase activity of crushed cell extract of transformed Saccharomyces cerevisiae; type: biochemical; settings: 0.35 ml supernatant, GAL1 induced; control: 1.2 μg protein
Method: Then the transglutaminase activity of the crude extract was investigated by an activity-detection method which made use of an increase in the intensity of fluorescent light (the fluorescent intensity observed at 480 nm while exciting with the light rays of 350 nm) due to the linkage of monodansylcadaverine to methylated casein as an indication. […] More specifically, 20 μl of each crude extract was added to 2 ml of a solution comprising 50 mM Tris-HCl buffer (pH 8.5), 1 mg/ml methylated casein, 15 μM monodansylcadaverine and 10 mM calcium chloride, followed by stirring and keeping warm at 37° C. for 20 minutes. After the reaction, 100 μl of 500 mM EDTA solution was added to the reaction system and each reaction solution was inspected for the intensity of emitted fluorescent light using a fluorophotometer (Shimadzu RF-1500, available from Shimadzu Corporation).
The transformant was first inoculated on 50 ml of a glucose synthesis minimum medium (prepared by adding 2% glucose and 50 mg/ml of histidine to the foregoing synthesis minimum medium) contained in a Sakaguchi flask and cultivated at 30° C. for 24 hours by shaking culture to increase the number of the cells. […]

Increase in Fluorescent Intensity/Cultivation Temp. (increase in fluorescent intensity) (dimethylated casein [1]): 12.8
Molecule: fusion protein of β-galactosidase and the TGase of Crassostrea gigas expressed by plasmid pCGTG4E (enzyme)

Increase in Fluorescent Intensity/Cultivation Temp. (increase in fluorescent intensity) (dimethylated casein [1]): 4.3
Molecule: TGase originated from Cavia porcellus (available from Takara Co., Ltd.) (from UniProt P08587) (enzyme)

Specific Activity (unit/mg): incorporation of monodansylcadaverine into dimethylated casein, fluorescence (dimethylated casein [2]): 1400 unit/mg
Molecule: transglutaminase originating from Crassostrea gigas (purified from natural Crassostrea gigas) (enzyme)

Increase in Fluorescent Intensity (increase in fluorescent intensity) (dimethylated casein [3]): 46.6
Molecule: recombinant type transglutaminase of Crassostrea gigas expressed in Saccharomyces cerevisiae INVSC2/pCGTG4S (enzyme)

maximum activity in the presence of NaCl relative to that in the absence [4]: about 2 times | Ca2+ concentration at which the activity reached the highest level ([4]; in the absence of NaCl): about 100 mM | Ca2+ concentration at which the activity reached the highest level ([4]; in the presence of NaCl (0.5M)): about 10 mM | total activity ([5]; Mono-Q active fraction): 358 units | total activity ([5]; purification step, Table 1): 368 unit
B1: purified transglutaminase: transglutaminase isolated and purified from Crassostrea gigas (Japanese oyster); Mono-Q active fraction (protein)
chain: AFWGVFYTIYSGIRRIAGQPPEEDTSDKEQKRSRTKKALGSEEEEGRISSLSDEDLRARNKVLEPKDEPSATLNVSSVDCQTKLNRKNHHTNEFEKAGNIYRRGQAFVIRVEFDREVNSDHDVILLQFTYGSRPQESKGTVIRIPLDLKPTTKTSDVTETWFAEVKNIAGKGLECAITSAPDSSIGEYRFYIETNLKDTDAVKRYEENESMIILFNAWAKEDTVYMDKEGERGEYVLNETGRVWTSRTWYGRPWNFGQFDDPVLDVALQLLLEGGLSDVACTSPVSVIRCLSSLCNSCDNNGVLAGRWTKEYPKDCTVPWKWTGSVAIIKEYHTNGNKPVRYGQCWVFSGLLTTMCRCLGIPTRSVTNFDSAHDTDSSMTIDSHWDEDGEPLEDMNDSVWNFHVWNESWFRRLDLPEGYDGWQAHDATPQEASEGIMRCGPAPLTAIKEGHVYLNFDIPFVFGEVNGDRVQWVVKKDGTMEVSQIDHSAVGHYISTKRMGSNDREDVTNLYKYPDGSEQERRVAKFVNRYSTRRKQNIYKLDTTKVLKFTVSPPDNTLIGDDMEIKVAVKNTADGPLKLHLTVSLVNAYYTGVAGSRVKTQTFEETIKAKDEKIVTMPVKGTEYHDGMNPEGRFQLYISGKNIDSGSMESTQISFVLKKPQLVIQVPQTIEAKEETEATIVFKNTTQLVLTQAEIAVEGSGLLAPQTIDISSPIKPGDEVKKTVVLRPRKPYYWGRELIATFTSKQIVDIETSADIKVIRQNKDNDSDSD
effect of addition of KCl on enzyme activity (in words) [4]: improved | effect of NaCl concentration on enzyme activity (in words) [4]: increased as the NaCl concentration increased | degree of gelation (casein; NaCl 0 M, CaCl2 0 mM, 1% casein, 4.0 units/mg, 37° C. 90 min): - | degree of gelation (casein; NaCl 0 M, CaCl2 10 mM): - | degree of gelation (casein; NaCl 0 M, CaCl2 25 mM): - | degree of gelation (casein; NaCl 0 M, CaCl2 50 mM): ± | degree of gelation (casein; NaCl 0 M, CaCl2 100 mM): + | degree of gelation (casein; NaCl 0 M, CaCl2 200 mM): + | degree of gelation (casein; NaCl 0.1 M, CaCl2 0 mM): - | degree of gelation (casein; NaCl 0.1 M, CaCl2 10 mM): - | degree of gelation (casein; NaCl 0.1 M, CaCl2 25 mM): ± | degree of gelation (casein; NaCl 0.1 M, CaCl2 50 mM): + | degree of gelation (casein; NaCl 0.1 M, CaCl2 100 mM): + | degree of gelation (casein; NaCl 0.1 M, CaCl2 200 mM): ± | Ca2+ concentration at which the casein solution underwent gelation (casein; NaCl 0.3M): not less than 25 mM | degree of gelation (casein; NaCl 0.3 M, CaCl2 0 mM): - | degree of gelation (casein; NaCl 0.3 M, CaCl2 10 mM): ± | degree of gelation (casein; NaCl 0.3 M, CaCl2 25 mM): + | degree of gelation (casein; NaCl 0.3 M, CaCl2 50 mM): + | degree of gelation (casein; NaCl 0.3 M, CaCl2 100 mM): + | degree of gelation (casein; NaCl 0.3 M, CaCl2 200 mM): + | Ca2+ concentration at which the casein solution underwent gelation (casein; free of NaCl): not less than 100 mM | specific activity ([5]; Mono-Q active fraction): 1404 units/mg protein | specific activity ([5]; purification step, Table 1): 1404 unit/mg | specific activity relative to that of the crude extract ([5]; purified solution vs crude extract): about 250 times

B2: TGase of Cavia porcellus: TGase originated from Cavia porcellus (available from Takara Co., Ltd.), used as control (protein)
chain: AEDLILERCDLQLEVNGRDHRTADLCRERLVLRRGQPFWLTLHFEGRGYEAGVDTLTFNAVTGPDPSEEAGTMARFSLSSAVEGGTWSASAVDQQDSTVSLLLSTPADAPIGLYRLSLEASTGYQGSSFVLGHFILLYNPRCPADAVYMDSDQERQEYVLTQQGFIYQGSAKFINGIPWNFGQFEDGILDICLMLLDTNPKFLKNAGQDCSRRSRPVYVGRVVSAMVNCNDDQGVLQGRWDNNYSDGVSPMSWIGSVDILRRWKDYGCQRVKYGQCWVFAAVACTVLRCLGIPTRVVTNFNSAHDQNSNLLIEYFRNESGEIEGNKSEMIWNFHCWVESWMTRPDLEPGYEGWQALDPTPQEKSEGTYCCGPVPVRAIKEGHLNVKYDAPFVFAEVNADVVNWIRQKDGSLRKSINHLVVGLKISTKSVGRDEREDITHTYKYPEGSEEEREAFVRANHLNKLATKEEAQEETGVAMRIRVGQNMTMGSDFDIFAYITNGTAESHECQLLLCARIVSYNGVLGPVCSTNDLLNLTLDPFSENSIPLHILYEKYGDYLTESNLIKVRGLLIEPAANSYVLAERDIYLENPEIKIRVLGEPKQNRKLIAEVSLKNPLPVPLLGCIFTVEGAGLTKDQKSVEVPDPVEAGEQAKVRVDLLPTEVGLHKLVVNFECDKLKAVKGYRNVIIGPA
Increase in Fluorescent Intensity [6]: 3.5 | Increase in Fluorescent Intensity [7]: 4.3 | effect of NaCl concentration on enzyme activity (in words) [4]: did not show any increase | Increase in Fluorescent Intensity [8]: 3.4
